For assay [1], the target named is T1, 人OX40抗原(购自Sino) (human, UniProt P43489 29-216, limits assumed).
T1 construct: Bought antigen coated on the ELISA plate; also called human OX40; CD134
T1 sequence (looked up): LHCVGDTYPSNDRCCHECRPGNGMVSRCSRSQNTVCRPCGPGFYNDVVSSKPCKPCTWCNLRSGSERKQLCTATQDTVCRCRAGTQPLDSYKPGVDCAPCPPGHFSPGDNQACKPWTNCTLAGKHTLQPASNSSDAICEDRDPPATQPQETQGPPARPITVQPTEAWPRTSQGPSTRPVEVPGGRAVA
The assay is described as follows: direct ELISA on coated human OX40 antigen; relative binding activity after 1 month at 40℃±2℃, pH 5.0-7.0 samples.

In assay [2] the target is T2, 人PD-L1抗原(购自Promega) (human, UniProt Q9NZQ7 19-238, limits assumed).
T2 construct: Bought antigen coated on the ELISA plate; also called human PD-L1; CD274
T2 sequence (Q9NZQ7 19-238 limits assumed): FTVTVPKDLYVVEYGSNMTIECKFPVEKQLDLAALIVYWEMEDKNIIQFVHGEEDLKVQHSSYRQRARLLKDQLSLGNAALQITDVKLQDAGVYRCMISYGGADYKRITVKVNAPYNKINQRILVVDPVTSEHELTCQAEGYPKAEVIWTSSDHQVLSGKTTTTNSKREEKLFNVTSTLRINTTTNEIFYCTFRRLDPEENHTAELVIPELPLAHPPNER
The assay is described as follows: direct ELISA on coated human PD-L1 antigen; relative binding activity after 1 month at 40℃±2℃, pH 5.0-7.0 samples.

B1: 抗PD-L1/OX40双特异性抗体 (bispecific antibody, human IgG2, kappa)
heavy: QVQLVQSGAEVKKPGASVKVSCKASGYTFTSYYMHWVRQAPGQGLEWMGIINPSGGSTSYAQKFQGRVTMTRDTSTSTVYMELSSLRSEDTAVYYCARDHASSSWYTTHLDLWGRGTLVTVSSASTKGPSVFPLAPCSRSTSESTAALGCLVKDYFPEPVTVSWNSGALTSGVHTFPAVLQSSGLYSLSSVVTVPSSNFGTQTYTCNVDHKPSNTKVDKTVERKCCVECPPCPAPPVAGPSVFLFPPKPKDTLMISRTPEVTCVVVDVSHEDPEVQFNWYVDGVEVHNAKTKPREEQFNSTFRVVSVLTVVHQDWLNGKEYKCKVSNKGLPAPIEKTISKTKGQPREPQVYTLPPSREEMTKNQVSLTCLVKGFYPSDIAVEWESNGQPENNYKTTPPMLDSDGSFFLYSKLTVDKSRWQQGNVFSCSVMHEALHNHYTQKSLSLSPGGGGGSGGGGSQVQLQESGGGLVQPGGSLRLSCAASAYTISRNSMGWFRQAPGKGLEGVAAIESDGSTSYSDSVKGRFTISLDNSKNTLYLEMNSLRAEDTAVYYCAAPKVGLGPRTALGHLAFMTLPALNYWGQGTLVTVSS
light: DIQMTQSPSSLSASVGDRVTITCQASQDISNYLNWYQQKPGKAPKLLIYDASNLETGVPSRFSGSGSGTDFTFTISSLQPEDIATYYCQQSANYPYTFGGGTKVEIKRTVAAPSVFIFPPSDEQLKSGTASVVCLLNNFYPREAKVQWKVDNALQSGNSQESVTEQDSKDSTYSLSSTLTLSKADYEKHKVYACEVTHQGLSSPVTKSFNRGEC
notes: also called 重组抗肿瘤坏死因子受体超家族成员4(OX40)和抗程序性死亡配体1(PD-L1)双特异性抗体; anti-PD-L1/OX40 bispecific antibody
With B1, the binding result in assay [1] and in assay [2] was “binds” in each case.

(Values after patent publication CN114146174A (HEADA BIOPHARMACEUTICAL SUZHOU CO LTD, dated 2022).)
